B1: GDNF: recombinant human mature GDNF obtained from Genentech (protein, UniProt P39905 78-211, looked up)
Glial cell line-derived …: SPDKQMAVLPRRERNRQAAAANPENSRGKGRRGQRGKNRGCVLTAIHLNVTDLGLGYETKEELIFRYCSGSCDAAETTYDKILKNLSRNRRLVSDKVGQACCRPIAFDDDLSFLDDNLVYHILRKHSAKRCGCI

Tests used:
[1] = system: SAN neuroblastoma cell line; assay: Responsiveness of a neuroblastoma cell line that does not express RET (SAN); type: cell-based; conditions: data not shown
[2] = system: NLF cells transformed with GFRα1; assay: Ga14-Elk/Ga14-Luc reporter in NLF neuroblastoma cells transformed with GFRα1; type: cell-based; conditions: factor for 24 hours, low-serum medium, FIG. 10B
Method: (§1) Thus, to directly test which receptor combinations can form functional receptors for artemin, expression plasmids for the individual GFRA coreceptors together with the Ga14-Elk/Ga14-Luc reporter system were transiently transformed into fibroblasts that stably express RET. […]
(§2) NLF neuroblastoma cells, which naturally express GFRα2/RET (Tansey et al., submitted), or the RET-3T3 cells were plated at 85,000 cells/well in 12-well plates, and cotransfected with the reporter plasmids Ga14-Luc and CMV-Ga14-Elk (250 ng/well and 50 ng/well, respectively), CMV-lacZ (50 ng/well) for transfection normalization, one of the CMV-GFRA expression plasmids (500 ng/well), and pBluescript (650 ng/well) as carrier for a total of 1.5 μg DNA/well using the Superfect reagent (Qiagen) according to the manufacturer's instructions. […] Measurement of luciferase and β-galactosidase activity was measured using a luminometer and performed as described (Svaren et al., EMBO J 17:6010-6019, 1998). The average luciferase activity of duplicate samples was normalized to β-galactosidase activity of the cotransformed lacZ reporter, and fold activation was calculated by dividing the normalized activity in factor-treated cells by that in the no treatment control.

[3] = system: NLF cells transformed with GFRα3; assay: Ga14-Elk/Ga14-Luc reporter in NLF neuroblastoma cells transformed with GFRα3; type: cell-based; conditions: factor for 24 hours, low-serum medium, FIG. 10B
Method: as §1, §2

[4] = system: NBL-S neuroblastoma cell line; assay: BrdU cell proliferation assay in NBL-S neuroblastoma cells; type: cell-based; conditions: 50 ng/mL, 30 hrs after factor addition, FIG. 8D
Method: In another experiment, the ability of artemin to induce proliferation of the NBL-S neuroblastoma cell line was examined. NBL-S cells were plated at 5×10^4 cells/well on 48-well plates in standard medium, either without treatment or in the presence of 50 ng/mL of GDNF, artemin, or persephin. Actively dividing cells undergoing DNA synthesis 30 hrs after factor addition were detected using the BrdU (colorimetric) cell proliferation assay kit according to the manufacturer's instructions (Boehringer-Mannheim) and the data are shown in FIG. 8D.

[5] = system: CHP134 neuroblastoma cell line; assay: Responsiveness of a neuroblastoma cell line that does not express RET (CHP134); type: cell-based; conditions: data not shown
GFRα3/RET = target: T1, GFRα3/RET (Homo sapiens, UniProt O60609+P07949); assay: Ga14-Elk/Ga14-Luc reporter in RET-3T3 fibroblasts transfected with GFRα3; type: cell-based; conditions: RET-3T3, 50 ng/ml for 6-8 hours, FIG. 10A
T1 construct: a fragment containing the complete coding region of human GFRα3 was PCR-amplified from a human pituitary cDNA library; expressed in transfected cells; host or cells: MG87 fibroblasts stably expressing human RET (RET-3T3), transiently transfected with pCB6-GFRα3
Method: as §1, §2

[6] = system: nodose ganglion (NG) neurons; assay: Survival of cultured nodose ganglion neurons; type: cell-based, rat; conditions: FIG. 7D; for survival of NG neurons: 50 ng/ml, 3 days in culture; for survival promotion of NG neurons compared with BDNF: GDNF family ligands 50 ng/ml, BDNF 100 ng/ml
Method: (§3) Each GDNF ligand family member consisted of the human mature amino acid sequence and was produced by standard recombinant DNA methods. Recombinant GDNF, neurturin and persephin were obtained from Genentech while recombinant artemin was produced as described in Example 3.
(§4) The cultures were performed using standard methods described elsewhere (Kotzbauer et al., Neuron 12:763-773, 1994; Kotzbauer et al., Nature 384:467-470, 1996; Milbrandt et al., Neuron 20:245-253, 1998). In brief, for SCG neurons, after dissection and dissociation, neurons were plated on collagen-coated 24-well tissue culture plates and maintained in NGF-containing medium (AM50) for 5 days, after which they were either kept in AM50 or switched to medium containing neutralizing anti-NGF antibodies plus GDNF, neurturin, persephin, artemin, (50 ng/ml where not noted otherwise), or no growth factors. Cultures were maintained for 3 days, after which they were fixed in 4% paraformaldehyde and stained with toluidine blue, and surviving neurons were counted. For nodose ganglion and dorsal root ganglion neuron cultures, dissociated neurons were plated directly into NGF (for dorsal root ganglia), or BDNF (for nodose ganglia, 100 ng/ml) or one of the GDNF ligands in serum-containing medium (AM50 with anti-NGF antibodies), and cells surviving after 3 days in culture were counted as above. Trigeminal ganglia were dissected, dissociated, and plated directly into medium containing NGF or the indicated GDNF ligands, and the number of surviving cells was assessed after 3 days in vitro. For all culture systems, 2-3 independent experiments were performed.

GFRα1/RET = target: T2, GFRα1/RET (UniProt P07949+Q62997); assay: Ga14-Elk/Ga14-Luc reporter in RET-3T3 fibroblasts transfected with GFRα1; type: cell-based, rat GFRα1, human RET; conditions: FIG. 10A; for activation of RET signaling in cells expressing GFRα1/RET (luciferase reporter): RET-3T3, 50 ng/ml for 6-8 hours
T2 construct: expressed in transfected cells; host or cells: MG87 fibroblasts stably expressing human RET (RET-3T3), transiently transfected with the CMV-GFRα1 plasmid
Excerpt: Thus, to directly test which receptor combinations can form functional receptors for artemin, expression plasmids for the individual GFRA coreceptors together with the Ga14-Elk/Ga14-Luc reporter system were transiently transformed into fibroblasts that stably express RET. This system, which utilizes the ability of the Ga14-Elk fusion protein to respond to MAP kinase activity and activate transcription of the Ga14-luciferase reporter, has been used previously to monitor NGF/TrkA activation of the MAP kinase pathway in PC12 cells (Vossler et al., Cell 89:73-82, 1997; York et al., Nature 392:622-626, 1998), and GDNF/RET activation of MAP kinase in neuroblastoma cell lines (Worby et al., 1998, supra; Worby et al., J. Biol. Chem. 271:23619-23622, 1996).
Generation of the expression plasmids for rat GFRα1 and human GFRα2, as well as MG87 fibroblasts stably expressing human RET (RET-3T3), were described in detail previously (Baloh et al., 1997, supra; Creedon et al., 1997, supra). […]
as §2

[7] = system: dorsal root ganglion (DRG) neurons; assay: Survival of cultured dorsal root ganglion neurons; type: cell-based, rat
Method: as §3, §4

[8] = 50 ng/ml, 3 days in culture, FIG. 7A

T2 sequence (Q62997 25-430 limits assumed): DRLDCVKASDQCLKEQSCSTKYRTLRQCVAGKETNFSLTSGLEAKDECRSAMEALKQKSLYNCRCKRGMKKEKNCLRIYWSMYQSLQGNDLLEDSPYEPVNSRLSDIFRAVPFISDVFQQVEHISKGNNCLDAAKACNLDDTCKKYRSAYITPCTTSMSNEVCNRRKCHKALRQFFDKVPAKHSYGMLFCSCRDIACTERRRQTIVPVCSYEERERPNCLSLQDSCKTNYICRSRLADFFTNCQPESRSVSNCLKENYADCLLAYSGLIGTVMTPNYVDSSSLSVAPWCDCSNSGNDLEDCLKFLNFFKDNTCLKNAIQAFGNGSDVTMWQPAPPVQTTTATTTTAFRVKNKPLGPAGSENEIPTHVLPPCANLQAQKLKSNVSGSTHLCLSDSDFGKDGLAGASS
T2 sequence (P07949 29-1114): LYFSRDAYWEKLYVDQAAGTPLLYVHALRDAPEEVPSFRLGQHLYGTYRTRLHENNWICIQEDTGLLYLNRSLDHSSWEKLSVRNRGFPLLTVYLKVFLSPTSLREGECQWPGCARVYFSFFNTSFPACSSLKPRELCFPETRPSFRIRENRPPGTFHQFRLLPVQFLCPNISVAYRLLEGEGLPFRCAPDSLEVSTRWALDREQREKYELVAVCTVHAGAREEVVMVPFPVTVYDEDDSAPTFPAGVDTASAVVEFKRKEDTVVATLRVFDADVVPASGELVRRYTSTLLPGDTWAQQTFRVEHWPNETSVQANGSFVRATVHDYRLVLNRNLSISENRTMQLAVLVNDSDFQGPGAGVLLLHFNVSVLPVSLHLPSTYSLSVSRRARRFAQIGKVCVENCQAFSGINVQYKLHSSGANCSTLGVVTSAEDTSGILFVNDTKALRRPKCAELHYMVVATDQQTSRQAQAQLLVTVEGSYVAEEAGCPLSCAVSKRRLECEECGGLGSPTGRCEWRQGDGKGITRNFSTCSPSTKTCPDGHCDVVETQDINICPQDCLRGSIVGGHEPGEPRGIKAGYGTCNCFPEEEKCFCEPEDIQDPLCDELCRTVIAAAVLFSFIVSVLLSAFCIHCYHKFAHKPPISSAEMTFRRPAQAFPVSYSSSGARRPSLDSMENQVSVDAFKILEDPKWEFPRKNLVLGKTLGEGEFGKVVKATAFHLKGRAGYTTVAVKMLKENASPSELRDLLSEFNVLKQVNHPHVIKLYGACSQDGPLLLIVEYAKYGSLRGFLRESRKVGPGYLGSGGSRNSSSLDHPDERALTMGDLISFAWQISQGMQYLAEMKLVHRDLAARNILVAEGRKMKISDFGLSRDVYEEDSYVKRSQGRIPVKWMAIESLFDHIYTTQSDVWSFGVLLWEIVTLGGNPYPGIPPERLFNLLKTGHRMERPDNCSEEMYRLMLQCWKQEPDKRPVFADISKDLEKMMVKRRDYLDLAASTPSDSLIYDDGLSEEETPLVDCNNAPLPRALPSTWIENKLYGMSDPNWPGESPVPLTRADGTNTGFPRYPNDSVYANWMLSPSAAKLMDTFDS
T1 sequence (O60609 32-374 limits assumed): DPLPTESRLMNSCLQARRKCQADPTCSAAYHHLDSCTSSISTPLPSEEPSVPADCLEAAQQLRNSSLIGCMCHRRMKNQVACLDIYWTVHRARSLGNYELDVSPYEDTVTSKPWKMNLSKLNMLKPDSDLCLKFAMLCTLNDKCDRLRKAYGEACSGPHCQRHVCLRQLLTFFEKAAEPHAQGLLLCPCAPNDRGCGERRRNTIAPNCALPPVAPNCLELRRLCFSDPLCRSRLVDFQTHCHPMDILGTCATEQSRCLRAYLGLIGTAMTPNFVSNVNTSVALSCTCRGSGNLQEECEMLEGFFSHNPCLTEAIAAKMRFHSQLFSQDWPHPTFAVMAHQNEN
T1 sequence (P07949 29-1114): as the sequence (P07949 29-1114) above

Molecule	response of SAN cells [1]	response of NLF cells transformed with GFRα1 (luciferase reporter) [2]	response of NLF cells transformed with GFRα3 (luciferase reporter) [3]	proliferation of NBL-S cells (BrdU incorporation) [4]	response of CHP134 cells [5]	activation of RET signaling in cells expressing GFRα3/RET (luciferase reporter) (GFRα3/RET)	survival of NG neurons [6]	survival promotion of NG neurons compared with BDNF [6]	activation of RET signaling in cells expressing GFRα1/RET (luciferase reporter) (GFRα1/RET)	degree of RET activation in cells expressing GFRα1/RET compared with GDNF (GFRα1/RET; RET-3T3, 50 ng/ml)	survival of DRG sensory neurons [7, 8]	number of DRG neurons supported compared with GDNF or neurturin ([7]; 50 ng/ml, FIG. 7A)	EC50 of survival promoting effect on DRG neurons ([7]; dose response, P1 rat DRG neurons, 3 days in culture, FIG. 7B) [ng/mL]	EC50 ([7]; dose response, P1 rat DRG neurons, molar figure, FIG. 7B, read-out: EC50 of survival promoting effect on DRG neurons) [nM]
artemin: recombinant mature human artemin (FIG. 3A, SEQ ID NO:3) with 8-histidine tag, produced in E. coli; GDNF family neurotrophic factor	did not respond	became responsive to artemin	allowed the cells to respond to artemin stimulation	stimulated proliferation of NBL-S cells	did not respond	able to activate GFRα3/RET	supported similar numbers of NG neurons	equal or greater survival promotion than BDNF	able to activate RET in cells expressing GFRα1/RET	to a lesser degree than GDNF	supported the survival of a subset of sensory neurons	supported a larger number of neurons than GDNF or neurturin	1 to 3	~0.1
B1	did not respond	responded more intensely to GDNF	decreased the ability of the cells to respond to GDNF	stimulated proliferation of NBL-S cells	did not respond	not GFRα3/RET	supported similar numbers of NG neurons	equal or greater survival promotion than BDNF	activated RET signaling		supported the survival of a subset of sensory neurons			
